Consider 3 molecules from publication PMC6192639, “Generation and characterization of monoclonal antibodies that recognize human and murine supervillin protein isoforms” (PLoS ONE, 2018).

As usually defined, the Kd is the equilibrium constant for the complex coming apart. Lower therefore signals higher affinity. By koff is commonly meant a measure of how fast the partners let go of each other. A lower koff goes with a long-lived complex. Usually kon stands for the rate constant with which the complex forms. Low values mean slower complex formation, high ones faster complex formation.

In assay [1] the target is T1, h340 linear peptide ELSATRQAHDLSPAA (Homo sapiens).
T1 construct: 15-residue peptide of human supervillin h340; numbers count on: hSV1; spot on a peptide microarray; source: printed peptide microarray (PEPperPRINT)
T1 chain: ELSATRQAHDLSPAA
Nature of the assay: peptide or protein array; PEPperPRINT microarray of linear 15-residue h340 peptides (overlap 13), hybridoma supernatants diluted 1:10 and 1:1, 16 h at 4 C, anti-mouse IgG DyLight680. Particulars: one partner purified.

Assay [2] addresses T2, h340 linear peptide IENQRRGQELSATRQ (Homo sapiens).
T2 construct: 15-residue peptide of human supervillin h340; numbers count on: hSV1; spot on a peptide microarray; source: printed peptide microarray (PEPperPRINT)
T2 chain: IENQRRGQELSATRQ
The assay is described as above. Conditions: one partner purified.

In assay [3] the target is T3, endogenous human supervillin splice-form 4 (SV4) (human (endogenous in U2OS)).
T3 construct: also called hSV4; source: endogenous, U2OS lysate
In words: immunoblot; cell extracts (HeLa; U2OS with control or SVIL-specific dsRNA; mouse embryonic fibroblasts) on 5-15% SDS gels, nitrocellulose strips probed with hybridoma supernatants diluted 1:500. Conditions: partners not purified. On the technique in general: A western blot detects proteins with antibodies after separation by electrophoresis.

Assay [4] concerns the target T4, human supervillin N-terminus, first 340 amino acids (h340) (Homo sapiens, UniProt O95425-2).
T4 construct: supervillin, human, first 340 amino acids of splice-form 1 (SV1); numbers count on: hSV1 (the ~205-kDa splice-form, not archvillin); also called h340 immunogen; h340 antigen; source: E. coli Rosetta2(DE3)pLysS, purified (glutathione-Sepharose 4B), cleaved from GST-h340 with PreScission Protease
Nature of the assay: BLI; Octet RED96e, 30 C, PBS-T; by the methods antibody coupled to AR2G sensors and h340 at about 2, 4, 8 and 16 nM, by the legend of Fig 3 surface-bound h340 and antibody in solution; 2:1 interaction model, global fit; KD as off-rate/on-rate. Conditions: both partners purified.

Assay [5] addresses T5, EGFP-tagged human supervillin splice-form 4 (EGFP-hSV4) (Homo sapiens, UniProt O95425-4, strain).
T5 construct: source: RH30 cells, transfected, fixed
Nature of the assay: immunostaining of cells or tissue; immunofluorescence, cells fixed with cold methanol; purified antibody 100 ug/ml; overexpressed tagged supervillins in RH30 cells. Particulars: one partner purified.

For assay [6], the target named is T6, Flag-tagged human supervillin splice-form 4 (Flag-hSV4) (Homo sapiens, UniProt O95425-4, strain).
T6 construct: source: RH30 cells, transfected, fixed
In words: immunostaining of cells or tissue; immunofluorescence, cells fixed with 4% PFA (in CSK buffer, CSK-PFA), Triton X-100; purified antibody 100 ug/ml; overexpressed tagged supervillins in RH30 cells, or endogenous supervillin in U2OS cells on fibronectin. Conditions: one partner purified.

T4 sequence (O95425 other isoform, or with tags, fused parts or gaps): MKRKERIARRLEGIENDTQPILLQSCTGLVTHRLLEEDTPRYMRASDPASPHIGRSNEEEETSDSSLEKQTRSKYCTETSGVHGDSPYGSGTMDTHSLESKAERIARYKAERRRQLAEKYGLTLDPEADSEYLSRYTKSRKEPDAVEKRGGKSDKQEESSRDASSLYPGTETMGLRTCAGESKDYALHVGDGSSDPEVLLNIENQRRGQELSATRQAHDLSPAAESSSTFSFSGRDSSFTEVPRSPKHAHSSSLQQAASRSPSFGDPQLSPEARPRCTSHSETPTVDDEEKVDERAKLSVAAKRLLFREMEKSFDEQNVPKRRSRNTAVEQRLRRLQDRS
T5 sequence (O95425 whole entry, looked up, change not shown, canonical isoform): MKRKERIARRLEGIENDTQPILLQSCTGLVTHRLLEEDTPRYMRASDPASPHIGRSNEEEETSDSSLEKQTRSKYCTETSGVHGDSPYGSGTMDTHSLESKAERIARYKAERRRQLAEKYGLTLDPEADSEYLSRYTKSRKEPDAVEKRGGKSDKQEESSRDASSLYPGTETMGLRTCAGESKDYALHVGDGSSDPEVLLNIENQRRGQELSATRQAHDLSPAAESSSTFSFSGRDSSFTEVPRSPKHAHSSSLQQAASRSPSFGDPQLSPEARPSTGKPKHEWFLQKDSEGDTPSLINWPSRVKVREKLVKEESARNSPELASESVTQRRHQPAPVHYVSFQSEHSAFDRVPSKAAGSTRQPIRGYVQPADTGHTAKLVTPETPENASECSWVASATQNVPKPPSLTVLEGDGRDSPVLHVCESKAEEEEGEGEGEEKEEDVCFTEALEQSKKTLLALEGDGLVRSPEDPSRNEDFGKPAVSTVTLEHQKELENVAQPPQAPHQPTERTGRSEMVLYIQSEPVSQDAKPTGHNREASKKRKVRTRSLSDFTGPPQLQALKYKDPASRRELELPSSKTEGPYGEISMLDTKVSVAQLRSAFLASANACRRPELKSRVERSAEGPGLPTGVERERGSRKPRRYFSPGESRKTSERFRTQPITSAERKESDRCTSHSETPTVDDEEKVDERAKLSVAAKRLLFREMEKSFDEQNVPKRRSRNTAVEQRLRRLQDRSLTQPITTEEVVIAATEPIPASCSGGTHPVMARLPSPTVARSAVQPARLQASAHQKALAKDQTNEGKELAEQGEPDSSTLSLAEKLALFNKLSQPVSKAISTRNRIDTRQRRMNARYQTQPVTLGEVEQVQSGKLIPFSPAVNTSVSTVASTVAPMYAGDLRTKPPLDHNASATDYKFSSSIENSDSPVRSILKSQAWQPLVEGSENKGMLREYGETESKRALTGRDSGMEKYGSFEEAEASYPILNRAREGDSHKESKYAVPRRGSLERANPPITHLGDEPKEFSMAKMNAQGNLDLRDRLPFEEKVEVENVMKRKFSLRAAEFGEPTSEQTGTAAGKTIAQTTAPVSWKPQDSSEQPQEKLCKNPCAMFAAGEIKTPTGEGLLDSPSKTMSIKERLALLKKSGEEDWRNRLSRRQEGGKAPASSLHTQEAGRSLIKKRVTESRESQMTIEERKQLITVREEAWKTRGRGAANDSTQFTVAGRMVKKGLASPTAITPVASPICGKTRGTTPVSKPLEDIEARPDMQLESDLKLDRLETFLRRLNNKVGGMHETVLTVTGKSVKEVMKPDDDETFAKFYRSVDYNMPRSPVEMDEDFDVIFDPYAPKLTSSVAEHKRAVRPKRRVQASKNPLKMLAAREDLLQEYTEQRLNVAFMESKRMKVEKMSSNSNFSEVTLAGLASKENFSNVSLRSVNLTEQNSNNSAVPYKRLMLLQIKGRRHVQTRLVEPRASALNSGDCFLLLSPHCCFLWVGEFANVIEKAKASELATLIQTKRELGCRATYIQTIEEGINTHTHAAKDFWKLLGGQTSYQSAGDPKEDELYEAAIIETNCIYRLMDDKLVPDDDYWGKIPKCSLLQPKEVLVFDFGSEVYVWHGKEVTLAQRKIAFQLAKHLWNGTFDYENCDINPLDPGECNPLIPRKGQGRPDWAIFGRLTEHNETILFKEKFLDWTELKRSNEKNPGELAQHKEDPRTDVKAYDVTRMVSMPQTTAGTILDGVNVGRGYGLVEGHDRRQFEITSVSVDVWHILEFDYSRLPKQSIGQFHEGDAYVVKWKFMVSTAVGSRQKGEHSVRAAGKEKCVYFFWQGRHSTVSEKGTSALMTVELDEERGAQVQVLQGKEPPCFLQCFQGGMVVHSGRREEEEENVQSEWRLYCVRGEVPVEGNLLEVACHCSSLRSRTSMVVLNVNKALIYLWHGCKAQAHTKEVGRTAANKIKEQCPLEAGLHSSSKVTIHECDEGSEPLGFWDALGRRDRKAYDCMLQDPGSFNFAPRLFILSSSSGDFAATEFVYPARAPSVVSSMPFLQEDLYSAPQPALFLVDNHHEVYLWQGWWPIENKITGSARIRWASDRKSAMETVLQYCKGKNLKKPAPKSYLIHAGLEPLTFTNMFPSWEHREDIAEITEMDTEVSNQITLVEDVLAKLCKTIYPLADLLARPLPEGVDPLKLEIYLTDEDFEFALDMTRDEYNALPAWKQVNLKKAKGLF
T6 sequence (O95425 whole entry, looked up, change not shown, canonical isoform): as above

B1: murine monoclonal antibody clone 2G3 (hybridoma supernatant) (antibody, V domains shown)
VH: QIQLQQSGPELVKPGASVKISCKASAYTFTDYYINWVKQRPGQGLEWIGWIYPGSGNTKYNEKFKGKATLTVDTSSSTAYMQLSSLTSEDSAVYFCATGPFGGFAYWGQGTLVTVSA
VL: DIVMTQAAPSVPVTPGESVSISCRSSKSLLHSNGNTYLYWFLQRPGQSPQLLIYRMSNLASGVPDRFSGSGSGTAFALRISRVEAEDVGVYYCMQHLEYPLTFDAGTRLELK
notes: HC variable region of clone 2G3, partial CDS; mouse IgG1 heavy chain constant region (isotype IgG1 by isotyping kit); LC variable region of clone 2G3, partial CDS; mouse light chain constant region; mouse IgG1; Group 1; source: mouse hybridoma supernatant (Precision Antibody, Inc.)
With B1, the binding result in assay [1], in assay [2] and in assay [3] was “binds” each time.

B2: chimeric (rabbit Fc) monoclonal antibody 4A8 (CPTC-SVIL-2) (antibody, V domains shown)
VH: EVQLQQSGAELVRPGASVKLSCTASGFNIKDDHMHWVKQRPEQGLEWIGWIDPENGDTEYASKFQDKATITADTSSNTAYLQFSSLTSEDTAVYYCTTGEFDNWGQGTTLTVSS
VL: DIVMTQAAPSIPVTPGQSVSISCRSSKSLLHSNGNTYLYWFLQRPGQSPQLLIYRMSNLASGVPDRFSGSGSATAFTLRISRVEAEDVGVYYCMQHLEYPFSFGAGTKLELK
notes: HC variable region of clone 4A8 (as the heavy chain variable region of m7), partial CDS; LC variable region of clone 4A8 (as the light chain variable region of m7), partial CDS; mouse variable regions on rabbit IgG and rabbit kappa constant regions; Group 2; also called Rb 4A8; chimeric rabbit 4A8; source: HEK293, transient production, purified (protein A)
In assay [4], B2 showed a Kd of 0.73 nM, a koff of 0.000296 s⁻¹ and a kon of 407000 M⁻¹ s⁻¹. Also, in assay [5], the binding result was “binds”.

B3: chimeric (rabbit Fc) monoclonal antibody 1E2 (CPTC-SVIL-1) (antibody, V domains shown)
VH: QIQLQQSGPDLVKPGASVKISCKASGYTFTDYYINWVKQRPGQGLEWIGWIYPGSGNTKFNERFKDKATLTVDTSSSTAYMQLSSLTSEDSAVYFCASGPFGGFAHWGQGTLVTVSA
VL: DIVMTQAAPSVPVTPGESVSISCRSSKSLLYSNGNTYLYWFLQRPGQSPQLLIYRMSNLASGVPDRFSGSGSGTAFTLKISRVEAEDVGVYYCMQHLEYPLTFGAGTKLELK
notes: HC variable region of clone 1E2 (as the heavy chain variable region of m4), partial CDS; LC variable region of clone 1E2 (as the light chain variable region of m4), partial CDS; mouse variable regions on rabbit IgG and rabbit kappa constant regions; Group 1; also called Rb 1E2; chimeric rabbit 1E2; source: HEK293, transient production, purified (protein A)
For B3, in assay [4], the Kd was 4.21 nM, the koff worked out at 0.000496 s⁻¹ and the kon turned out to be 118000 M⁻¹ s⁻¹. For the same molecule, the binding result in assay [6] was “binds”.
